Source: patent US20240392004A1 (IMMUNOWAKE, published 2024)

How the values were obtained:
Experiment in all cases: cell-based or functional assay
[1] = target: T1, IFN-γ receptor (IFNGR1 and IFNGR2) (UniProt P15260 18-489; P38484 22-337, limits assumed)
T1 sequence (looked up) 1: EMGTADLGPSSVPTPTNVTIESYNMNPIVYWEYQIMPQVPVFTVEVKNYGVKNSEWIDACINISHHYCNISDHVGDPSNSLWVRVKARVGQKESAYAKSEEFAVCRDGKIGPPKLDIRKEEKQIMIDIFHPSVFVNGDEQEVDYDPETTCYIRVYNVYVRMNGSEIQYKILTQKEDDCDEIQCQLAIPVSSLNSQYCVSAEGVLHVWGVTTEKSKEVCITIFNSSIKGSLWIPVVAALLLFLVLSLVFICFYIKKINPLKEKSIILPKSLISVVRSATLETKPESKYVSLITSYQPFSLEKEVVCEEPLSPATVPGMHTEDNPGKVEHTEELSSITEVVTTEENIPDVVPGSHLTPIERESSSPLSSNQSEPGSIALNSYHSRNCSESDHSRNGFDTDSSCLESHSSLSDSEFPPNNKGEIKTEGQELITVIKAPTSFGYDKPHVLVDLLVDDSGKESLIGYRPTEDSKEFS
T1 sequence (looked up) 2: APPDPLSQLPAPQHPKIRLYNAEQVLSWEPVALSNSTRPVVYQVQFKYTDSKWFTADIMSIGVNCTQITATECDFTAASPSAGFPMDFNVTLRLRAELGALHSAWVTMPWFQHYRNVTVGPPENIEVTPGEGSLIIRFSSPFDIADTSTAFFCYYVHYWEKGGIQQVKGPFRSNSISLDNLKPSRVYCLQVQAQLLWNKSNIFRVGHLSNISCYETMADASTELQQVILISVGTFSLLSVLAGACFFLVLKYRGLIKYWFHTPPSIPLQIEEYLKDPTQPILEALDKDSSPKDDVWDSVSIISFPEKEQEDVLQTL

[2] = target: human PD-1 on cells (HEK-PD-1 reporter cells; activated PBMC) (human, UniProt Q15116 25-288)
Sequence of human PD-1 on cells (HEK-PD-1 reporter cells; activated PBMC) (Q15116 25-288): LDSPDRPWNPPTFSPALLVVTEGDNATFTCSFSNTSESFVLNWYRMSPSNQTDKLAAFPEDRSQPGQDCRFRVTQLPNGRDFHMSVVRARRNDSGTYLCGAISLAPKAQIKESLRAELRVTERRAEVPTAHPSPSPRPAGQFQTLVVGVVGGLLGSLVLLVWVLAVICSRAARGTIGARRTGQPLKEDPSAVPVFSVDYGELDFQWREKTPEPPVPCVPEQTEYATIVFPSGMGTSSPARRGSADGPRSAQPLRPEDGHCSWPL

[3] = target: human IL-12 receptor complex (IL-12Rβ1 and IL-12Rβ2) (human, UniProt P42701 24-662; Q99665 24-862)
Sequence of human IL-12 receptor complex (IL-12Rβ1 and IL-12Rβ2) (Q99665 24-862, chain 2 of 2, other chains not shown): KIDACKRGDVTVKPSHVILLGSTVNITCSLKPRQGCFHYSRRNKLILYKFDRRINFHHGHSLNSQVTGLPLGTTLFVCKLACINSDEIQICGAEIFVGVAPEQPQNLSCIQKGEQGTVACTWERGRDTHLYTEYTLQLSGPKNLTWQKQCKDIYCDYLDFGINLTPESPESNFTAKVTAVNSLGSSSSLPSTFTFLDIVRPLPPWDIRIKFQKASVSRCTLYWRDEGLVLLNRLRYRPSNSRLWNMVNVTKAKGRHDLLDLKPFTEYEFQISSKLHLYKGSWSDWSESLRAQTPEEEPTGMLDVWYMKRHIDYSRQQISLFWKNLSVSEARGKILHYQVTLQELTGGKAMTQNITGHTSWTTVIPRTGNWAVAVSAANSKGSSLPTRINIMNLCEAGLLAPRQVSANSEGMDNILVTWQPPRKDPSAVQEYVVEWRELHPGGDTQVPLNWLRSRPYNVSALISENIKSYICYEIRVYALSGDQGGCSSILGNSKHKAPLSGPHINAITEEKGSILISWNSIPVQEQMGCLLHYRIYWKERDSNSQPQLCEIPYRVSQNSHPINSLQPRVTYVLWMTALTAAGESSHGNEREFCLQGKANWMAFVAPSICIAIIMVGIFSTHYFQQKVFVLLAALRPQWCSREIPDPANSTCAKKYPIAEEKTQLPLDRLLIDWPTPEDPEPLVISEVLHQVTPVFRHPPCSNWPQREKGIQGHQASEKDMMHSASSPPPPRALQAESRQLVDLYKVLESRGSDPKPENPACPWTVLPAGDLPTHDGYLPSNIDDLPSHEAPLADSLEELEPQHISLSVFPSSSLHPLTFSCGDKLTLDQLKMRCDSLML

B1: IFN-γ(A23V/A23V)/PD-L1(mut2)-Fc (Fc fusion)
chain 1: FTVTVPKDLYVVEYGSNMTIECKFPVEKQLDLAALQVYWMMEDKNIIQFVHGEEDLKVQHSSYRQRARLLKDQLSLGNAALQITDVKLQDAGVYTCLIAYKGADYKRITVKVNAPYNKINQRILVVDPVTSEHELTCQAEGYPKAEVIWTSSDHQVLSGKTTTTNSKREEKLFNVTSTLRINTTTNEIFYCTFRRLDPEENHTAELVIPELPLAHPPNERGGGGSGGGDKTHTCPPCPAPEDEGGPSVFLFPPKPKDTLMISRTPEVTCVVVDVSHEDPEVKFNWYVDGVEVHNAKTKPREEQYNSTYRVVSVLTVLHQDWLNGKEYKCKVSNKALPAPIEKTISKAKGQPREPQVYVYPPSREEMTKNQVSLTCLVKGFYPSDIAVEWESNGQPENNYKTTPPVLDEDGSFALVSKLTVDKSRWQQGNVFSCSVMHEALHNHYTQKSLSLSPGK
chain 2: FTVTVPKDLYVVEYGSNMTIECKFPVEKQLDLAALQVYWMMEDKNIIQFVHGEEDLKVQHSSYRQRARLLKDQLSLGNAALQITDVKLQDAGVYTCLIAYKGADYKRITVKVNAPYNKINQRILVVDPVTSEHELTCQAEGYPKAEVIWTSSDHQVLSGKTTTTNSKREEKLFNVTSTLRINTTTNEIFYCTFRRLDPEENHTAELVIPELPLAHPPNERGGGSGQDPYVKEAENLKKYFNAGHSDVVDNGTLFLGILKNWKEESDRKIMQSQIVSFYFKLFKNFKDDQSIQKSVETIKEDMNVKFFNSNKKKRDDFEKLTNYSVTDLNVQRKAIHELIQVMAELSPAAKTGKRKRSQMLFRGGGGSGGGGSGGGGSGGGGSQDPYVKEAENLKKYFNAGHSDVVDNGTLFLGILKNWKEESDRKIMQSQIVSFYFKLFKNFKDDQSIQKSVETIKEDMNVKFFNSNKKKRDDFEKLTNYSVTDLNVQRKAIHELIQVMAELSPAAKTGKRKRSQMLFRGGGGGSGGGDKTHTCPPCPAPEKKGGPSVFLFPPKPKDTLMISRTPEVTCVVVDVSHEDPEVKFNWYVDGVEVHNAKTKPREEQYNSTYRVVSVLTVLHQDWLNGKEYKCKVSNKALPAPIEKTISKAKGQPREPQVYVLPPSREEMTKNQVSLLCLVKGFYPSDIAVEWESNGQPENRYMTWPPVLDSDGSFFLYSKLTVDKSRWQQGNVFSCSVMHEALHNHYTQKSLSLSPGK
IFN-γ signal transduction, HEK-IFN-γ [1]: < 0.1% | IFN-γ signal transduction, HEK-IFN-γ-PD-1 [2]: 44% | IL-12 signal transduction, HEK-IL-12-PD-1 [2]: < 0.2% | IL-12 signal transduction, HEK-IL-12 [3]: < 0.2%

B2: IL-12(E59A/F60A)/IFN-γ(A23V/A23V)/PD-L1(mut2)-Fc (Fc fusion)
chain 1: FTVTVPKDLYVVEYGSNMTIECKFPVEKQLDLAALQVYWMMEDKNIIQFVHGEEDLKVQHSSYRQRARLLKDQLSLGNAALQITDVKLQDAGVYTCLIAYKGADYKRITVKVNAPYNKINQRILVVDPVTSEHELTCQAEGYPKAEVIWTSSDHQVLSGKTTTTNSKREEKLFNVTSTLRINTTTNEIFYCTFRRLDPEENHTAELVIPELPLAHPPNERGGGGSGGGIWELKKDVYVVELDWYPDAPGEMVVLTCDTPEEDGITWTLDQSSEVLGSGKTLTIQVKAAGDAGQYTCHKGGEVLSHSLLLLHKKEDGIWSTDILKDQKEPKNKTFLRCEAKNYSGRFTCWWLTTISTDLTFSVKSSRGSSDPQGVTCGAATLSAERVRGDNKEYEYSVECQEDSACPAAEESLPIEVMVDAVHKLKYENYTSSFFIRDIIKPDPPKNLQLKPLKNSRQVEVSWEYPDTWSTPHSYFSLTFCVQVQGKSKREKKDRVFTDKTSATVICRKNASISVRAQDRYYSSSWSEWASVPCSGGGGSGGGSGGGGSRNLPVATPDPGMFPCLHHSQNLLRAVSNMLQKARQTLEFYPCTSEEIDHEDITKDKTSTVEACLPLELTKNESCLNSRETSFITNGSCLASRKTSFMMALCLSSIYEDLKMYQVEFKTMNAKLLMDPKRQIFLDQNMLAVIDELMQALNFNSETVPQKSSLEEPDFYKTKIKLCILLHAFRIRAVTIDRVMSYLNASGGGGSGGGDKTHTCPPCPAPEDEGGPSVFLFPPKPKDTLMISRTPEVTCVVVDVSHEDPEVKFNWYVDGVEVHNAKTKPREEQYNSTYRVVSVLTVLHQDWLNGKEYKCKVSNKALPAPIEKTISKAKGQPREPQVYVYPPSREEMTKNQVSLTCLVKGFYPSDIAVEWESNGQPENNYKTTPPVLDEDGSFALVSKLTVDKSRWQQGNVFSCSVMHEALHNHYTQKSLSLSPGK
chain 2: FTVTVPKDLYVVEYGSNMTIECKFPVEKQLDLAALQVYWMMEDKNIIQFVHGEEDLKVQHSSYRQRARLLKDQLSLGNAALQITDVKLQDAGVYTCLIAYKGADYKRITVKVNAPYNKINQRILVVDPVTSEHELTCQAEGYPKAEVIWTSSDHQVLSGKTTTTNSKREEKLFNVTSTLRINTTTNEIFYCTFRRLDPEENHTAELVIPELPLAHPPNERGGGSGQDPYVKEAENLKKYFNAGHSDVVDNGTLFLGILKNWKEESDRKIMQSQIVSFYFKLFKNFKDDQSIQKSVETIKEDMNVKFFNSNKKKRDDFEKLTNYSVTDLNVQRKAIHELIQVMAELSPAAKTGKRKRSQMLFRGGGGSGGGGSGGGGSGGGGSQDPYVKEAENLKKYFNAGHSDVVDNGTLFLGILKNWKEESDRKIMQSQIVSFYFKLFKNFKDDQSIQKSVETIKEDMNVKFFNSNKKKRDDFEKLTNYSVTDLNVQRKAIHELIQVMAELSPAAKTGKRKRSQMLFRGGGGGSGGGDKTHTCPPCPAPEKKGGPSVFLFPPKPKDTLMISRTPEVTCVVVDVSHEDPEVKFNWYVDGVEVHNAKTKPREEQYNSTYRVVSVLTVLHQDWLNGKEYKCKVSNKALPAPIEKTISKAKGQPREPQVYVLPPSREEMTKNQVSLLCLVKGFYPSDIAVEWESNGQPENRYMTWPPVLDSDGSFFLYSKLTVDKSRWQQGNVFSCSVMHEALHNHYTQKSLSLSPGK
IFN-γ signal transduction, HEK-IFN-γ [1]: < 0.1% | IFN-γ signal transduction, HEK-IFN-γ-PD-1 [2]: 39% | IL-12 signal transduction, HEK-IL-12-PD-1 [2]: 32% | IL-12 signal transduction, HEK-IL-12 [3]: < 0.2%
